*1 amine or outer side, *2 acyl side, *3 side chain or, on linkers, in order; H or OH if unused. Where no end group is shown, it is not given here. Side-chain parts run from the residue outwards. [ ]: non-standard residue; d: D form. The star is where a group is joined. γGlu = O=C(O)[C@H](CCC(=O)[*:2])N[*:1]; Palmitoyl = CCCCCCCCCCCCCCCC(=O)*; Nle = CCCC[C@H](N)C(=O)O; Aib = CC(C)(N)C(=O)O
B1: Co-agonist Peptide 14 (peptide)
peptide: HXQGTXTSDKSKYLDERAAQDFVQWLLDT
modifications: D-Ser at 2; threo-β-phenylserine (tβP) at 6; Lys 10 conjugated to γEγE-C16 (palmitoyl); C-terminal amide
B2: Co-agonist Peptide 2 (peptide)
peptide: H[dS]QGTFTSDK([γGlu-γGlu-Palmitoyl])SKYLDVRRAQDFVQWLLDT-NH2
modifications: not fully specified; printed as HsQGTFTSDK(γEγEC16)SKYLDVRRAQDFVQWLLDT-NH2
B3: Co-agonist Peptide 4 (peptide)
peptide: H[Aib]VGTFTSDK([γGlu-γGlu-Palmitoyl])SKYLD[Aib]RAAQDFVQWL[Nle]DT-NH2
modifications: N-terminus assumed
SMILES: CCCCCCCCCCCCCCCC(=O)N[C@@H](CCC(=O)N[C@@H](CCC(=O)NCCCC[C@H](NC(=O)[C@H](CC(=O)O)NC(=O)[C@H](CO)NC(=O)[C@@H](NC(=O)[C@H](Cc1ccccc1)NC(=O)[C@@H](NC(=O)CNC(=O)[C@@H](NC(=O)C(C)(C)NC(=O)[C@@H](N)Cc1c[nH]cn1)C(C)C)[C@@H](C)O)[C@@H](C)O)C(=O)N[C@@H](CO)C(=O)N[C@@H](CCCCN)C(=O)N[C@@H](Cc1ccc(O)cc1)C(=O)N[C@@H](CC(C)C)C(=O)N[C@@H](CC(=O)O)C(=O)NC(C)(C)C(=O)N[C@@H](CCCNC(=N)N)C(=O)N[C@@H](C)C(=O)N[C@@H](C)C(=O)N[C@@H](CCC(N)=O)C(=O)N[C@@H](CC(=O)O)C(=O)N[C@@H](Cc1ccccc1)C(=O)N[C@H](C(=O)N[C@@H](CCC(N)=O)C(=O)N[C@@H](Cc1c[nH]c2ccccc12)C(=O)N[C@@H](CC(C)C)C(=O)N[C@@H](CCCC)C(=O)N[C@@H](CC(=O)O)C(=O)N[C@H](C(N)=O)[C@@H](C)O)C(C)C)C(=O)O)C(=O)O
B4: Co-agonist Peptide 7 (peptide)
peptide: Ac-HAQGTFTSDK([γGlu-γGlu-Palmitoyl])SKYLDERAAQDFVQWLLDT-NH2
SMILES: CCCCCCCCCCCCCCCC(=O)N[C@@H](CCC(=O)N[C@@H](CCC(=O)NCCCC[C@H](NC(=O)[C@H](CC(=O)O)NC(=O)[C@H](CO)NC(=O)[C@@H](NC(=O)[C@H](Cc1ccccc1)NC(=O)[C@@H](NC(=O)CNC(=O)[C@H](CCC(N)=O)NC(=O)[C@H](C)NC(=O)[C@H](Cc1c[nH]cn1)NC(C)=O)[C@@H](C)O)[C@@H](C)O)C(=O)N[C@@H](CO)C(=O)N[C@@H](CCCCN)C(=O)N[C@@H](Cc1ccc(O)cc1)C(=O)N[C@@H](CC(C)C)C(=O)N[C@@H](CC(=O)O)C(=O)N[C@@H](CCC(=O)O)C(=O)N[C@@H](CCCNC(=N)N)C(=O)N[C@@H](C)C(=O)N[C@@H](C)C(=O)N[C@@H](CCC(N)=O)C(=O)N[C@@H](CC(=O)O)C(=O)N[C@@H](Cc1ccccc1)C(=O)N[C@H](C(=O)N[C@@H](CCC(N)=O)C(=O)N[C@@H](Cc1c[nH]c2ccccc12)C(=O)N[C@@H](CC(C)C)C(=O)N[C@@H](CC(C)C)C(=O)N[C@@H](CC(=O)O)C(=O)N[C@H](C(N)=O)[C@@H](C)O)C(C)C)C(=O)O)C(=O)O

target: human glucagon receptor (human, UniProt P47871 26-477); test: cell-based or functional assay
Sequence (P47871 26-477): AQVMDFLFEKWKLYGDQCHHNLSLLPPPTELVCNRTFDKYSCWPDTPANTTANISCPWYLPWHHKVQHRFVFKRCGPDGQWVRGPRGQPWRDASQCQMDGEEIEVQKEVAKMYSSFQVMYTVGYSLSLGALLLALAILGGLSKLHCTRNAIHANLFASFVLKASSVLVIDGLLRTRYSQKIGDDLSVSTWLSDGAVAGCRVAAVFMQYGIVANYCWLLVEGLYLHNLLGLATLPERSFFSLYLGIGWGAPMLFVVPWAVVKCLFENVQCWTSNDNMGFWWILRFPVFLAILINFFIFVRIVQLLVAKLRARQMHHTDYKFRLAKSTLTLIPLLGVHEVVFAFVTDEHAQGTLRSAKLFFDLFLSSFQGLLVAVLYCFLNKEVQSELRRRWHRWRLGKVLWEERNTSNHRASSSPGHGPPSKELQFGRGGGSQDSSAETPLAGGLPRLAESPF

First: B1
Second: B2
The “hGCGR/hGLP1R (hTone): ratio of cAMP EC50 at human GCGR to cAMP EC50 at human GLP1R” value of the first is higher: 1.02 ratio for the first, 0.3 ratio for the second.

First: B3
Second: B4
The “hGCGR/hGLP1R (hTone): ratio of cAMP EC50 at human GCGR to cAMP EC50 at human GLP1R” value of the first is higher: 8.98 ratio for the first, 1 ratio for the second.
